Molecular target: the molecule itself
Experiment: SEC; Vmp2 on a Superose 6 Increase 10/300 column in SEC buffer with 0.03% DDM

B1: Vmp2 (virulence-associated membrane protein 2), full length without the signal peptide (natural protein)
chain: AESQCEERNDYSRKRPSHKPFTSHQNKQDRSCSSPLPSESCSTSAITPSDSAVRDTSLSRRGLPGMPGDIEWMGFYGSLLAVPTMLSILGIITNYNLGKSYYNSELNAQYYKQSREMLRAHTAKLIQDQEKKFANAGVSWNGMVYGKDGQVNPGAKLPEWNGRVLGGTVANPKSQPVPGSGGAVQGAAAGVGGGTTAGVAAGAGAASAGTGPAQVGGATAGGAGAEAQTGTGAIATGTGTGGAGDAGGSAPVSSGAEQGDAEAGDEARGSEERGDDGTEDRRGGQSEGDDDSDSDGNDEGDAGDAGDAGDA
notes: Vmp2 (UMAG_01689) of Ustilago maydis SG200, a protein of 335 aa, cloned from genomic DNA without the signal peptide (25 aa as predicted by SignalP-5.0); one TM helix at residues 100-115; The methods say that the Mistics-tag was cleaved off with TEV before SEC; also called UMAG_01689; full length Vmp2; source: E. coli OverExpress C43 (DE3), purified (membrane fraction solubilised with DDM, Ni-NTA, …)
- stoichiometry N: 2

From article PMC8176221, “Identification and Characterization of Two Transmembrane Proteins Required for Virulence of Ustilago maydis” (Frontiers in Plant Science, 2021)
